Experimental data: doi:10.1101/336578
Like-named read-outs stand apart in the source and are kept apart here.

Legend:
[1] = biological target: KS-PPT di-domain construct of the S. cerevisiae FAS α-chain (S. cerevisiae); assay: SEC
[2] = biological target: KS-PPT di-domain construct of the S. cerevisiae FAS α-chain (S. cerevisiae); assay: SEC; remark: listed apart in the source

stoichiometry N [1]: 2.5
stoichiometry N [2]: 2
Substance: KS-PPT di-domain construct of the S. cerevisiae FAS α-chain (domain or fragment)
